Measurements published in doi:10.1101/2025.06.13.659598.

Biological target: nesprin-2G SR11-13 (spectrin repeats 11-13 of human nesprin-2) (human)
Assay: co-sedimentation

FHOD1 wild-type, full length, sequence (Q9Y613 whole entry): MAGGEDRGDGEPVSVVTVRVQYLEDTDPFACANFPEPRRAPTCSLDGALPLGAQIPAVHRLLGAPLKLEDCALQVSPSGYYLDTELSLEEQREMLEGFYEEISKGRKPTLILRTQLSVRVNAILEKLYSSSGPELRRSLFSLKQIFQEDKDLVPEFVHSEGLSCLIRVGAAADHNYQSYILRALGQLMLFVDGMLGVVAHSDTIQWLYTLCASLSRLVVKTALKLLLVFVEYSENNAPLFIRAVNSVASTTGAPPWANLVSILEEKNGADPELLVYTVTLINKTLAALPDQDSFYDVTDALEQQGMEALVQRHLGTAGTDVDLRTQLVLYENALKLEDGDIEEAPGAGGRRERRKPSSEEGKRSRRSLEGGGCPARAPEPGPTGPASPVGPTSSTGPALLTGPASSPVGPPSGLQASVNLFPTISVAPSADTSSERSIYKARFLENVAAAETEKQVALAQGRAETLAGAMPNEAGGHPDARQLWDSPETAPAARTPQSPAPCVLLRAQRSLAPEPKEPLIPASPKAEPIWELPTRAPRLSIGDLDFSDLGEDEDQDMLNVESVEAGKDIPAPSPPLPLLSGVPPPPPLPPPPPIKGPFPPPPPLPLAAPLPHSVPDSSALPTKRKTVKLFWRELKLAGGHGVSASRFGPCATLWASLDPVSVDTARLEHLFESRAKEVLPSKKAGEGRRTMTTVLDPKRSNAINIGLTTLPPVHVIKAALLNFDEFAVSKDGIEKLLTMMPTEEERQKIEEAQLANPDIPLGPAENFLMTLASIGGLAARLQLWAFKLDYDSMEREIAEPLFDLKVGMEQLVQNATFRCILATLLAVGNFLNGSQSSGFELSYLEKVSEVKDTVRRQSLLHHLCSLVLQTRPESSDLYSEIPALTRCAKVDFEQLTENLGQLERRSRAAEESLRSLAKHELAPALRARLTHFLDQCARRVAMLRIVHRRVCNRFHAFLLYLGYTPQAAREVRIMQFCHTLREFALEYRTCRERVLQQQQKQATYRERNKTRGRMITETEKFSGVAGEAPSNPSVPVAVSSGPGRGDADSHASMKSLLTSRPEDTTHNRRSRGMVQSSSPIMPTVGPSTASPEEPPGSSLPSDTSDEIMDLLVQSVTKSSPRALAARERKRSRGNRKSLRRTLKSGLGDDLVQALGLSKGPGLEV

| stoichiometry N (scale: FHOD1 WT per SR11-13) | stoichiometry N (scale: FHOD3 WT per SR11-13) | Substance |
| --- | --- | --- |
| 1.18 | – | FHOD1 wild-type, full length (from UniProt Q9Y613 1-1164) (natural protein) |
| – | 1.3 | FHOD3 wild-type (from UniProt Q2V2M9 1-1422) (natural protein) |
